# Data reported in patent US12605469B2, “Tumor specific antibody conjugates and uses therefor” (The University of North Carolina at Charlotte, priority 2019, dated 2026).
# Assays:
# [1] = target: T1, human MUC1 antigen in plate ELISA (KCM lysate) (human, UniProt P15941 24-1255, limits assumed, tumor-associated glycosylation, not specified further); test: sandwich ELISA: hybridoma antibody coat, KCM lysate 10 µg/mL, test antibody in 5-fold dilutions, HRP goat anti-human IgG, OD450
# [2] = target: T2, human MUC1, tumor-associated form (tMUC), on tumor cells and tumor tissue (human, UniProt P15941 24-1255, tumor-associated (aberrant) glycosylation, not specified further); test: flow cytometry of particle uptake, 12 hours at 37 °C; KCM cells (human MUC1) against KCKO cells (MUC1 knockout)
# T2 construct: also called tMUC1; tumor-associated glycosylated MUC1
# T2 sequence (P15941 other isoform, or with tags, fused parts or gaps limits assumed): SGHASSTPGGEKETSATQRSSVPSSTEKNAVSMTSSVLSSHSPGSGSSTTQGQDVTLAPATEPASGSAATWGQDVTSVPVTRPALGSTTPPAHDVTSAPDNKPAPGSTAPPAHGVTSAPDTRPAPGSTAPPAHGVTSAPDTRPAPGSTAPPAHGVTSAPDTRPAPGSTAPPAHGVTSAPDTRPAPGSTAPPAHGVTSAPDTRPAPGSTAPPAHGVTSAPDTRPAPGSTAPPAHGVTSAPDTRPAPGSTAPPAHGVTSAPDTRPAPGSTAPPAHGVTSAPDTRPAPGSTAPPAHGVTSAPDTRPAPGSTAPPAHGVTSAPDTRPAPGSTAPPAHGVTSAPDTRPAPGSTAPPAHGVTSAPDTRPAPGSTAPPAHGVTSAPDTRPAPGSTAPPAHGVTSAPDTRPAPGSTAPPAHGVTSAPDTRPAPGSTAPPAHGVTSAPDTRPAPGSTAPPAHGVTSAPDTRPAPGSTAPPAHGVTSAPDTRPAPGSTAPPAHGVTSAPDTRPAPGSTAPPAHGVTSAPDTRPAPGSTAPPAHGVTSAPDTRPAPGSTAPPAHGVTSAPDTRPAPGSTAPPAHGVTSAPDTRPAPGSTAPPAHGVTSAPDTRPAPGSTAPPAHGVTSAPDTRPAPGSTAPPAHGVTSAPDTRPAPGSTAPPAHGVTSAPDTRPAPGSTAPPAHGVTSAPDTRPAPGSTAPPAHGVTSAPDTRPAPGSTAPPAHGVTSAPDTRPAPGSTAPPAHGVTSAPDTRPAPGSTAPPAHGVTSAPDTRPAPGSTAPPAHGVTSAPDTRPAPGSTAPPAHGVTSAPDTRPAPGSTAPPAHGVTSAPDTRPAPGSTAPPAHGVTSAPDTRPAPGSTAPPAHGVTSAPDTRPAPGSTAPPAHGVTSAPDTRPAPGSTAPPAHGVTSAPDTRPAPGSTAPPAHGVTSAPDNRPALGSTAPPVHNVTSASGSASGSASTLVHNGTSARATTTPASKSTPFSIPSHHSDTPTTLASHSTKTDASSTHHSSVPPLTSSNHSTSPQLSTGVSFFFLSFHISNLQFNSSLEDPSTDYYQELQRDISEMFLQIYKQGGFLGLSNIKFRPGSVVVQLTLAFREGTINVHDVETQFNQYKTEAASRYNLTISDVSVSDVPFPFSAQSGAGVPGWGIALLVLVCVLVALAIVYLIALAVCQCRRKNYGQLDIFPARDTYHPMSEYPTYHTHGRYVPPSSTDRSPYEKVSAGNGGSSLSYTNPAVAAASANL
# [3] = target: T1, human MUC1 antigen in plate ELISA (KCM …); test: sandwich ELISA: hybridoma antibody coat, KCM lysate 10 µg/mL, test antibody in 5-fold dilutions, HRP goat anti-human IgG
# T1 sequence (P15941 other isoform, or with tags, fused parts or gaps limits assumed): as above
Binder,EC50 [1] [µg/mL],other results
"Chimeric parental antibody (H4965 + L4965) (antibody, IgG1, V domains shown, also called pp 9854; Chimeric Parental HC) VH: EVQLQQSGGERATPGASVKMSCKTSGYTFTNYWMHWVKQRPGQGLEWIGYINPSSGYTQYNQKFKDKATLTADKSSSTAYIQLSSLTSEDSAVYYCSTYYGDYLFPYWGQGTLVTVSA VL: DVLMTQTPLSLPVSLGDQASISCRSSQDIVYGNGNTYLEWYLQKPGQSPKLLIYKVSNRFSGVPDRFSGSGSGTDFTLKISRVEAEDLGVYYCFQGSHVPYTFGGGTKLEIKR",0.006,–
"Humanized HC2 + LC2 (antibody, human IgG2, kappa, V domains shown, Listing: IgG2 heavy chain; also called H6246 + L6246) VH: QVQLVQSGAEVKKPGASVKVSCKASGYTFTNYWMHWVRQAPGQGLEWMGYINPSSGYTQYNQKFQGRVTMTADTSTSTVYMELSSLRSEDTAVYYCSTYYGDYLFPYWGQGTLVTVSS VL: DVVMTQSPLSLPVTLGQPASISCRSSQDIVYGNGNTYLEWYQQRPGQSPRLLIYKVSNRFSGVPDRFSGSGSGTDFTLKISRVEAEDVGVYYCFQGSHVPYTFGQGTKLEIKR",0.032,–
"TAB-004 antibody-conjugated mesoporous silica nanoparticle (antibody, V domains shown, antibody coupled by EDC to the carboxylic acid groups of a PEG-2K linker on an FITC-labelled mesoporous silica nanoparticle; site not stated, Many copies of TAB-004 on one particle; also called TAB-004-MSN) VH: EVQLQQSGGERATPGASVKMSCKTSGYTFTNYWMHWVKQRPGQGLEWIGYINPSSGYTQYNQKFKDKATLTADKSSSTAYIQLSSLTSEDSAVYYCSTYYGDYLFPYWGQGTLVTVSA VL: DVLMTQTPLSLPVSLGDQASISCRSSQDIVYGNGNTYLEWYLQKPGQSPKLLIYKVSNRFSGVPDRFSGSGSGTDFTLKISRVEAEDLGVYYCFQGSHVPYTFGGGTKLEIKR",–,fold increase in uptake by KCM cells as compared to KCKO cells [2]: 8 fold
"Humanized HC1 + LC1 (antibody, human IgG2, kappa, V domains shown, also called H6245 + L6245) VH: QVQLVQSGAEVKKPGASVKVSCKASGYTFTNYWMHWVRQAPGQGLEWMGYINPSSGYTQYNQKFQGRVTMTRDTSTSTVYMELSSLRSEDTAVYYCSTYYGDYLFPYWGQGTLVTVSS VL: DVVMTQSPLSLPVTLGQPASISCRSSQDIVYGNGNTYLEWFQQRPGQSPRLLIYKVSNRFSGVPDRFSGSGSGTDFTLKISRVEAEDVGVYYCFQGSHVPYTFGQGTKLEIKR",–,binding result [3]: no binding
"Humanized HC3 + LC3 (antibody, human IgG2, kappa, V domains shown, Listing: IgG2 heavy chain; also called H6247 + L6247) VH: EVQLVQSGAEVKKPGASVKVSCKASGYTFTNYWMHWVRQAPGQGLEWMGYINPSSGYTQYNQKFQGWVTMTADTSISTAYMELSRLRSDDTAVYYCSTYYGDYLFPYWGQGTLVTVSS VL: DIVLTQSPLSLPVTLGQPASISCRSSQDIVYGNGNTYLEWYQQRPGQSPRLLIYKVSNRFSGVPDSFSGSGSGTDFTLTISRVEAEDVGIYYCFQGSHVPYTFGEGTKLEIKR",0.004,–
"Humanized HC3 + LC1 (antibody, human IgG2, kappa, V domains shown, Listing: IgG2 heavy chain; also called H6247 + L6245) VH: EVQLVQSGAEVKKPGASVKVSCKASGYTFTNYWMHWVRQAPGQGLEWMGYINPSSGYTQYNQKFQGWVTMTADTSISTAYMELSRLRSDDTAVYYCSTYYGDYLFPYWGQGTLVTVSS VL: DVVMTQSPLSLPVTLGQPASISCRSSQDIVYGNGNTYLEWFQQRPGQSPRLLIYKVSNRFSGVPDRFSGSGSGTDFTLKISRVEAEDVGVYYCFQGSHVPYTFGQGTKLEIKR",–,binding result [3]: no binding
"Humanized HC1 + LC2 (antibody, human IgG2, kappa, V domains shown, Listing: IgG2 heavy chain; also called H6245 + L6246) VH: QVQLVQSGAEVKKPGASVKVSCKASGYTFTNYWMHWVRQAPGQGLEWMGYINPSSGYTQYNQKFQGRVTMTRDTSTSTVYMELSSLRSEDTAVYYCSTYYGDYLFPYWGQGTLVTVSS VL: DVVMTQSPLSLPVTLGQPASISCRSSQDIVYGNGNTYLEWYQQRPGQSPRLLIYKVSNRFSGVPDRFSGSGSGTDFTLKISRVEAEDVGVYYCFQGSHVPYTFGQGTKLEIKR",0.055,–
"Humanized HC1 + LC3 (antibody, human IgG2, kappa, V domains shown, Listing: IgG2 heavy chain; also called H6245 + L6247) VH: QVQLVQSGAEVKKPGASVKVSCKASGYTFTNYWMHWVRQAPGQGLEWMGYINPSSGYTQYNQKFQGRVTMTRDTSTSTVYMELSSLRSEDTAVYYCSTYYGDYLFPYWGQGTLVTVSS VL: DIVLTQSPLSLPVTLGQPASISCRSSQDIVYGNGNTYLEWYQQRPGQSPRLLIYKVSNRFSGVPDSFSGSGSGTDFTLTISRVEAEDVGIYYCFQGSHVPYTFGEGTKLEIKR",0.051,–
"Humanized HC2 + LC3 (antibody, human IgG2, kappa, V domains shown, Listing: IgG2 heavy chain; also called H6246 + L6247) VH: QVQLVQSGAEVKKPGASVKVSCKASGYTFTNYWMHWVRQAPGQGLEWMGYINPSSGYTQYNQKFQGRVTMTADTSTSTVYMELSSLRSEDTAVYYCSTYYGDYLFPYWGQGTLVTVSS VL: DIVLTQSPLSLPVTLGQPASISCRSSQDIVYGNGNTYLEWYQQRPGQSPRLLIYKVSNRFSGVPDSFSGSGSGTDFTLTISRVEAEDVGIYYCFQGSHVPYTFGEGTKLEIKR",0.027,–
"Humanized HC2 + LC1 (antibody, human IgG2, kappa, V domains shown, Listing: IgG2 heavy chain; also called H6246 + L6245) VH: QVQLVQSGAEVKKPGASVKVSCKASGYTFTNYWMHWVRQAPGQGLEWMGYINPSSGYTQYNQKFQGRVTMTADTSTSTVYMELSSLRSEDTAVYYCSTYYGDYLFPYWGQGTLVTVSS VL: DVVMTQSPLSLPVTLGQPASISCRSSQDIVYGNGNTYLEWFQQRPGQSPRLLIYKVSNRFSGVPDRFSGSGSGTDFTLKISRVEAEDVGVYYCFQGSHVPYTFGQGTKLEIKR",–,binding result [3]: no binding
"Humanized HC3 + LC2 (antibody, human IgG2, kappa, V domains shown, Listing: IgG2 heavy chain; also called H6247 + L6246) VH: EVQLVQSGAEVKKPGASVKVSCKASGYTFTNYWMHWVRQAPGQGLEWMGYINPSSGYTQYNQKFQGWVTMTADTSISTAYMELSRLRSDDTAVYYCSTYYGDYLFPYWGQGTLVTVSS VL: DVVMTQSPLSLPVTLGQPASISCRSSQDIVYGNGNTYLEWYQQRPGQSPRLLIYKVSNRFSGVPDRFSGSGSGTDFTLKISRVEAEDVGVYYCFQGSHVPYTFGQGTKLEIKR",0.007,–
